Laboratory results: PMC4570271, “Resolution of structure of PIP5K1A reveals molecular mechanism for its regulation by dimerization and dishevelled” (Nature Communications, 2015)

Legend:
[1] = target: T1, GST-tagged DIX domain of mouse DVL1 (residues 1-106) with Y17D (mouse, UniProt P51141 1-106, Y17D); experiment: pull-down; GST-DIX (or GST) 0.5 μg and His-tagged PIP5K1 0.5 μg in 200 μl of 10 mM HEPES (pH 7.4), 150 mM NaCl, 0.2% Triton, 0.01% SDS, 3 mM dithiothreitol, 10% glycerol; 4 °C overnight; glutathione beads; western blotting; details: both partners purified
T1 construct: DIX domain of mouse DVL1, residues 1-106, Y17D to eliminate DIX aggregation; A longer construct 1-200 (DIX-L) is named in the methods but tied to no experiment; also called DVL DIX; GST-DVL; source: E. coli, purified (glutathione-agarose beads, size-exclusion chromatography)
T1 sequence (looked up): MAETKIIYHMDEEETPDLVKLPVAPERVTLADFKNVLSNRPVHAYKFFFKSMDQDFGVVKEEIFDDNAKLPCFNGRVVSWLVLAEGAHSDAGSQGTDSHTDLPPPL

[2] = target: T2, Dix109; experiment: ITC; details: chain shown with the change;
T2 chain: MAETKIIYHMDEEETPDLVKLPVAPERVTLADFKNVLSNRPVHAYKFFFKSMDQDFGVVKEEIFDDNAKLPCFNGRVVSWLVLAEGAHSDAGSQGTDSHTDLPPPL

[3] = target: T1, GST-tagged DIX domain of mouse DVL1 …; experiment: cell-based or functional assay

B1: zebrafish PIP5K1A kinase catalytic domain, D276A mutant (domain or fragment)
chain: MASTGETTYKKTTSSALKGAIQLGITHSVGSLSQKPERDVLMQDFEVVESIFFPSQGSSSTPGHHHGDFKFKTYAPIAFRYFREMFGIRPDDYLYSLCNEPLIELSNPGASGSLFYVSSDDEFIIKTVQHKEAEFLQTLLPGYFMNLNQNMRTLLPKFYGLYCVQADGKNIRIVVMNNLLPRAVPMHLKFDLKGSTYKRRASPKERSKGVPTYKDLDFMQDMPEGILLENAHYTALSRTMQRDCRVLQSFKIMDYSLLVGIHILHRAGEEASTAVPDTQKKGQGQKPLYCTAIESIQGESKSKTSPQPYESMGGIPAFNSKGERLLVFIGIIDILQSYRLVKKLEHSWKALLHDGDTVSVHRPSFYADRFQKFMCSTVFRKSQLKTLE
notes: kinase catalytic domain of zebrafish PIP5K1Aα, residues 49-431; C-terminal 'Leu-Glu' that precedes the His6 tag; source: E. coli BL21-CodonPlus(DE3)-RIL, purified in the same way as the wild-type protein; not shown: His6, C-terminal, kept
- reduction of the interaction against the wild type [1]: > 70%

B2: zebrafish PIP5K1A kinase catalytic domain, E167A mutant (domain or fragment)
chain: MASTGETTYKKTTSSALKGAIQLGITHSVGSLSQKPERDVLMQDFEVVESIFFPSQGSSSTPGHHHGDFKFKTYAPIAFRYFREMFGIRPDDYLYSLCNEPLIELSNPGASGSLFYVSSDDAFIIKTVQHKEAEFLQTLLPGYFMNLNQNMRTLLPKFYGLYCVQADGKNIRIVVMNNLLPRAVPMHLKFDLKGSTYKRRASPKERSKGVPTYKDLDFMQDMPEGILLENDHYTALSRTMQRDCRVLQSFKIMDYSLLVGIHILHRAGEEASTAVPDTQKKGQGQKPLYCTAIESIQGESKSKTSPQPYESMGGIPAFNSKGERLLVFIGIIDILQSYRLVKKLEHSWKALLHDGDTVSVHRPSFYADRFQKFMCSTVFRKSQLKTLE
notes: as for B1
- change in the interaction against the wild type [1]: ≤ 20%

B3: zebrafish PIP5K1A kinase catalytic domain, triple D84R/L86A/V291A (DLV) mutant (domain or fragment)
chain: MASTGETTYKKTTSSALKGAIQLGITHSVGSLSQKPERRVAMQDFEVVESIFFPSQGSSSTPGHHHGDFKFKTYAPIAFRYFREMFGIRPDDYLYSLCNEPLIELSNPGASGSLFYVSSDDEFIIKTVQHKEAEFLQTLLPGYFMNLNQNMRTLLPKFYGLYCVQADGKNIRIVVMNNLLPRAVPMHLKFDLKGSTYKRRASPKERSKGVPTYKDLDFMQDMPEGILLENDHYTALSRTMQRDCRALQSFKIMDYSLLVGIHILHRAGEEASTAVPDTQKKGQGQKPLYCTAIESIQGESKSKTSPQPYESMGGIPAFNSKGERLLVFIGIIDILQSYRLVKKLEHSWKALLHDGDTVSVHRPSFYADRFQKFMCSTVFRKSQLKTLE
- Kd ([2]; parent: 1.2 µM): 800 nM
- other: N ([2]; parent: 1.01 ± 0.09): 0.98
- other: -TΔS ([2]; parent: 120 ± 16 KJ mol-1): 53.8 kcal/mol
- dG ([2]; parent: -31.0 ± 3.5 KJ mol-1): -8.32 kcal/mol
- other: ΔH ([2]; parent: -151 ± 19 KJ mol-1): -62.1 kcal/mol
- fold activation of the lipid kinase activity by DIX [3]: > 30 fold

B4: zebrafish PIP5K1A kinase catalytic domain, F131A mutant (domain or fragment)
chain: MASTGETTYKKTTSSALKGAIQLGITHSVGSLSQKPERDVLMQDFEVVESIFFPSQGSSSTPGHHHGDFKFKTYAPIAFRYFREMAGIRPDDYLYSLCNEPLIELSNPGASGSLFYVSSDDEFIIKTVQHKEAEFLQTLLPGYFMNLNQNMRTLLPKFYGLYCVQADGKNIRIVVMNNLLPRAVPMHLKFDLKGSTYKRRASPKERSKGVPTYKDLDFMQDMPEGILLENDHYTALSRTMQRDCRVLQSFKIMDYSLLVGIHILHRAGEEASTAVPDTQKKGQGQKPLYCTAIESIQGESKSKTSPQPYESMGGIPAFNSKGERLLVFIGIIDILQSYRLVKKLEHSWKALLHDGDTVSVHRPSFYADRFQKFMCSTVFRKSQLKTLE
notes: as for B1
- change in the interaction against the wild type [1]: ≤ 20%

B5: zebrafish PIP5K1A kinase catalytic domain, Y140A mutant (domain or fragment)
chain: MASTGETTYKKTTSSALKGAIQLGITHSVGSLSQKPERDVLMQDFEVVESIFFPSQGSSSTPGHHHGDFKFKTYAPIAFRYFREMFGIRPDDYLASLCNEPLIELSNPGASGSLFYVSSDDEFIIKTVQHKEAEFLQTLLPGYFMNLNQNMRTLLPKFYGLYCVQADGKNIRIVVMNNLLPRAVPMHLKFDLKGSTYKRRASPKERSKGVPTYKDLDFMQDMPEGILLENDHYTALSRTMQRDCRVLQSFKIMDYSLLVGIHILHRAGEEASTAVPDTQKKGQGQKPLYCTAIESIQGESKSKTSPQPYESMGGIPAFNSKGERLLVFIGIIDILQSYRLVKKLEHSWKALLHDGDTVSVHRPSFYADRFQKFMCSTVFRKSQLKTLE
notes: kinase catalytic domain of zebrafish PIP5K1Aα, residues 49-431; the residue is printed 'Try-140' in the results and Y140A later; C-terminal 'Leu-Glu' that precedes the His6 tag; also called Try-140 to Ala; source: E. coli BL21-CodonPlus(DE3)-RIL, purified in the same way as the wild-type protein; not shown: His6, C-terminal, kept
- change in the interaction against the wild type [1]: ≤ 20%

B6: zebrafish PIP5K1A kinase catalytic domain, E82A mutant (domain or fragment)
chain: MASTGETTYKKTTSSALKGAIQLGITHSVGSLSQKPARDVLMQDFEVVESIFFPSQGSSSTPGHHHGDFKFKTYAPIAFRYFREMFGIRPDDYLYSLCNEPLIELSNPGASGSLFYVSSDDEFIIKTVQHKEAEFLQTLLPGYFMNLNQNMRTLLPKFYGLYCVQADGKNIRIVVMNNLLPRAVPMHLKFDLKGSTYKRRASPKERSKGVPTYKDLDFMQDMPEGILLENDHYTALSRTMQRDCRVLQSFKIMDYSLLVGIHILHRAGEEASTAVPDTQKKGQGQKPLYCTAIESIQGESKSKTSPQPYESMGGIPAFNSKGERLLVFIGIIDILQSYRLVKKLEHSWKALLHDGDTVSVHRPSFYADRFQKFMCSTVFRKSQLKTLE
notes: as for B1
- change in the interaction against the wild type [1]: ≤ 20%
